# IntAct's records for PubMed 17947231
# B1: Calvin cycle protein CP12-2, chloroplastic (Arabidopsis thaliana (Mouse-ear cress)), Q9LZP9 (parent)
# chain: MATIATGLNIATQRVFVTSENRPVCLAGPVHLNNSWNLGSRTTNRMMKLQPIKAAPEGGISDVVEKSIKEAQETCAGDPVSGECVAAWDEVEELSAAASHARDKKKADGSDPLEEYCKDNPETNECRTYDN
# partner: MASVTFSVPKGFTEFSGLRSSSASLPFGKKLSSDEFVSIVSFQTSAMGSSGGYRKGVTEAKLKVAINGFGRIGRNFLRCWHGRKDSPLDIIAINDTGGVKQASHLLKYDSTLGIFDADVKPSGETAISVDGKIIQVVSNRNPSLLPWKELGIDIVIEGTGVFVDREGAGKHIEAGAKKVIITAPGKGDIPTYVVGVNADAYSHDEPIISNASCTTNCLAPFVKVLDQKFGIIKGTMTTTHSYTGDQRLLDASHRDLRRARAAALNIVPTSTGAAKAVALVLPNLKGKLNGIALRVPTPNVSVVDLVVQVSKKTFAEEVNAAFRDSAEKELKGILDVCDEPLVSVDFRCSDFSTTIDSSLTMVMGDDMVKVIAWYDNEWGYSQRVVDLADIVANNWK
# Variants of: B1
# Details: with GAPA1, P25856
row,Variant,effect of a mutation on the interaction
1,MATIATGLNIATQRVFVTSENRPVCLAGPVHLNNSWNLGSRTTNRMMKLQPIKAAPEGGISDVVEKSIKEAQETCAGDPVSGECVAAWDEVEELSAAASHARDKKKADGSDPLEEYCKDNPETNESRTYDN,disrupting interaction
